Assay results taken from patent US20260226173A1, “COMPOSITIONS INCLUDING ANTI-WT-1 ANTIBODIES & ANTIGEN BINDING FRAGMENTS AND USES THEREOF” (Memorial Sloan-Kettering Cancer Center, priority 2023, published 2026).

Experiments:
[1] = target: HLA-A2 with endogenous peptides on HLA-A2-positive cells not pulsed with peptide (SKLY-16, normal cells of HLA-A2+ donors) (human); test: flow cytometry, whole blood of an HLA-A2 positive healthy donor, neutrophil gate, CD15 against isotype control
[2] = target: HLA-A2 with endogenous peptides on HLA-A2-positive cells not pulsed with peptide (SKLY-16, normal cells of HLA-A2+ donors) (human); test: flow cytometry, PBMCs of an HLA-A2 positive healthy donor, CD19 against isotype control
[3] = target: HLA-A2 with endogenous peptides on HLA-A2-positive cells not pulsed with peptide (SKLY-16, normal cells of HLA-A2+ donors) (human); test: flow cytometry, PBMCs of an HLA-A2 positive healthy donor, CD33 against isotype control
[4] = target: WT1 RMF (…)/HLA-A2 complex on cells (human); test: flow cytometry, primary AML cells (FIG. 18 shows sample 92C per paragraph 796) stained with PE-conjugated isotype control mouse IgG at 3 µg/ml; unstained 124

## Isotype (antibody)
[1]
  % of gated neutrophils CD15+ and isotype+ (upper right quadrant): 0.04%
  % of gated neutrophils CD15- and isotype+ (lower right quadrant): 0.02%
[2]
  % of PBMCs CD19+ and isotype+ (upper right quadrant): 0.91%
  % of PBMCs CD19- and isotype+ (lower right quadrant): 0.05%
[3]
  % of PBMCs CD33+ and isotype+ (upper right quadrant): 0.03%
  % of PBMCs CD33- and isotype+ (lower right quadrant): 1.07%

## Iso. (antibody)
[4]
  MFI: 372
